Measured values from patent US20040059519A1.
“And” between values parts separate entries of the source, which are not always exact repeats. Equal values may be shown once. Each block holds one substance with its values, some of them ahead of it.

Legend:
Peptide 1 …-biotin = experiment: multiplex peptide beads, flow cytometry; beads pre-incubated with free biotin 10 ug/mL
Peptide 2 …-biotin = experiment: as above
Peptide 3 …-biotin = experiment: as above
Peptide 4 …-biotin = experiment: as above
[1] = molecular target: Peptide 5 …-biotin (human); experiment: as above
Peptide 6 …-biotin = experiment: as above
Peptide 7 …-biotin = experiment: as above
Peptide 8 …-biotin = experiment: as above
Peptide 9 …-biotin = experiment: as above
Alpha fetoprotein [2] = molecular target: Alpha fetoprotein (UniProt P02771); experiment: multiplex sandwich, S10473 capture beads; AFP 0 ng/mL, washed
Sequence of UniProt P02771 (P02771 19-609 limits assumed): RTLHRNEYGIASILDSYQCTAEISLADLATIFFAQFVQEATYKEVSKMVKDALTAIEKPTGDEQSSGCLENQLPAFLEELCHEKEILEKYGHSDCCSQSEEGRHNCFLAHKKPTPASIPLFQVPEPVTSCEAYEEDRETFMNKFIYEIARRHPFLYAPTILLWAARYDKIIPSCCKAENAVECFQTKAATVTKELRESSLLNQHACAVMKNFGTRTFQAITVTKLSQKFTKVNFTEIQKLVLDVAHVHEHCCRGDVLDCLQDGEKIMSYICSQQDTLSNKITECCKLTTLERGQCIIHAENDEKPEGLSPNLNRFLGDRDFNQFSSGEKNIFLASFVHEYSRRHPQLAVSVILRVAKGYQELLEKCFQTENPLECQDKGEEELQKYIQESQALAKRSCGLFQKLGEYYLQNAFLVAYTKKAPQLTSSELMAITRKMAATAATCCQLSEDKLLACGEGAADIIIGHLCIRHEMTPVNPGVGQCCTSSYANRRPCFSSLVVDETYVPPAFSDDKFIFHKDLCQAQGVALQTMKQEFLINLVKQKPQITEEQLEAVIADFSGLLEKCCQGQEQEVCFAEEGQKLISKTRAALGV

Alpha fetoprotein [3] = molecular target: Alpha fetoprotein (UniProt P02771); experiment: multiplex sandwich, S10473 capture beads; AFP 1 ng/mL, washed
Alpha fetoprotein [4] = molecular target: Alpha fetoprotein (UniProt P02771); experiment: multiplex sandwich, S10473 capture beads; AFP 4 ng/mL, washed
Alpha fetoprotein [5] = molecular target: Alpha fetoprotein (UniProt P02771); experiment: multiplex sandwich, S10473 capture beads; AFP 31 ng/mL, washed
Alpha fetoprotein [6] = molecular target: Alpha fetoprotein (UniProt P02771); experiment: multiplex sandwich, S10473 capture beads; AFP 0.5 ng/mL, washed
Alpha fetoprotein [7] = molecular target: Alpha fetoprotein (UniProt P02771); experiment: multiplex sandwich, S10473 capture beads; AFP 125 ng/mL, washed
Alpha fetoprotein [8] = molecular target: Alpha fetoprotein (UniProt P02771); experiment: multiplex sandwich, S10473 capture beads; AFP 16 ng/mL, no wash
Alpha fetoprotein [9] = molecular target: Alpha fetoprotein (UniProt P02771); experiment: multiplex sandwich, S10473 capture beads; AFP 62 ng/mL, no wash
Alpha fetoprotein [10] = molecular target: Alpha fetoprotein (UniProt P02771); experiment: multiplex sandwich, S10473 capture beads; AFP 1000 ng/mL, washed
Alpha fetoprotein [11] = molecular target: Alpha fetoprotein (UniProt P02771); experiment: multiplex sandwich, S10473 capture beads; AFP 125 ng/mL, no wash
[12] = molecular target: Human chorionic gonadotropin (human) (UniProt P01215); experiment: MAB602 capture beads, flow cytometry; hCG 0.1 ng/mL, anti-AFP probe
Sequence of UniProt P01215 (P01215 25-116, chain 1 of 2, other chains not shown): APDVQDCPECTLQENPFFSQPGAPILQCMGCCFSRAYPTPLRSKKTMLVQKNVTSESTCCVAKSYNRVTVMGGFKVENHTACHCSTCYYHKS

[13] = molecular target: Human chorionic gonadotropin (human) (UniProt P01215); experiment: MAB602 capture beads, flow cytometry; hCG 1.0 ng/mL, anti-AFP probe
[14] = molecular target: Human chorionic gonadotropin (human) (UniProt P01215); experiment: MAB602 capture beads, flow cytometry; hCG 10.0 ng/mL, anti-AFP probe
Alpha fetoprotein [15] = molecular target: Alpha fetoprotein (UniProt P02771); experiment: anti-AFP capture beads, flow cytometry; AFP 1.0 ng/mL, anti-AFP probe
[16] = molecular target: Human chorionic gonadotropin (human) (UniProt P01215); experiment: anti-AFP capture beads, flow cytometry; hCG 1.0 ng/mL, anti-AFP probe
[17] = molecular target: Human chorionic gonadotropin (human) (UniProt P01215); experiment: MAB602 capture beads, flow cytometry; hCG 1000.0 ng/mL, anti-AFP probe
Alpha fetoprotein [18] = molecular target: Alpha fetoprotein (UniProt P02771); experiment: anti-AFP capture beads, flow cytometry; AFP 100.0 ng/mL, anti-AFP probe
[19] = molecular target: Human chorionic gonadotropin (human) (UniProt P01215); experiment: sandwich, MAB602 capture beads, flow cytometry; hCG 0 ng/mL
[20] = molecular target: Human chorionic gonadotropin (human) (UniProt P01215); experiment: sandwich, MAB602 capture beads, flow cytometry; hCG 0.2 ng/mL
[21] = molecular target: Human chorionic gonadotropin (human) (UniProt P01215); experiment: multiplex sandwich, MAB602 capture beads; hCG 4 ng/mL, washed
[22] = molecular target: Human chorionic gonadotropin (human) (UniProt P01215); experiment: multiplex sandwich, MAB602 capture beads; hCG 1 ng/mL, no wash
[23] = molecular target: Human chorionic gonadotropin (human) (UniProt P01215); experiment: multiplex sandwich, MAB602 capture beads; hCG 31 ng/mL, washed
[24] = molecular target: Human chorionic gonadotropin (human) (UniProt P01215); experiment: multiplex sandwich, MAB602 capture beads; hCG 0.5 ng/mL, washed
[25] = molecular target: Human chorionic gonadotropin (human) (UniProt P01215); experiment: multiplex sandwich, MAB602 capture beads; hCG 500 ng/mL, washed
[26] = molecular target: Human chorionic gonadotropin (human) (UniProt P01215); experiment: multiplex sandwich, MAB602 capture beads; hCG 1000 ng/mL, washed
[27] = molecular target: Human chorionic gonadotropin (human) (UniProt P01215); experiment: multiplex sandwich, MAB602 capture beads; hCG 2000 ng/mL, washed
[28] = molecular target: Human chorionic gonadotropin (human) (UniProt P01215); experiment: multiplex sandwich, MAB602 capture beads; hCG 500 ng/mL, no wash
Alpha fetoprotein [29] = molecular target: Alpha fetoprotein (UniProt P02771); experiment: MAB602 capture beads, flow cytometry; AFP 0.1 ng/mL, anti-hCG probe
[30] = molecular target: Human chorionic gonadotropin (human) (UniProt P01215); experiment: MAB602 capture beads, flow cytometry; hCG 100.0 ng/mL, anti-hCG probe
Alpha fetoprotein [31] = molecular target: Alpha fetoprotein (UniProt P02771); experiment: anti-AFP capture beads, flow cytometry; AFP 0.0 ng/mL, anti-hCG probe
Alpha fetoprotein [32] = molecular target: Alpha fetoprotein (UniProt P02771); experiment: anti-AFP capture beads, flow cytometry; AFP 0.1 ng/mL, anti-hCG probe
[33] = molecular target: Human chorionic gonadotropin (human) (UniProt P01215); experiment: multiplex no-wash sandwich, MAB602 beads; serum Level 2, hCG 26.4 mU/mL

MIF (Peptide 1 …-biotin): 17
MIF (Peptide 2 …-biotin): 19
MIF (Peptide 3 …-biotin): 22
MIF (Peptide 4 …-biotin): 26
MIF [1]: 1020
MIF (Peptide 6 …-biotin): 20
MIF (Peptide 7 …-biotin): 23
MIF (Peptide 8 …-biotin): 34
MIF (Peptide 9 …-biotin): 36
Substance: MAB 384, Bodipy FL-X labeled (antibody)

MIF of Fm (Alpha fetoprotein [2]): 13
MIF of Fm (Alpha fetoprotein [3]): 35
MIF of Fm (Alpha fetoprotein [4]): 108
MIF of Fm (Alpha fetoprotein [5]): 612
MIF of Fm (Alpha fetoprotein [6]): 25
MIF of Fm (Alpha fetoprotein [7]): 1050
MIF of Fm (Alpha fetoprotein [8]): 359
MIF of Fm (Alpha fetoprotein [9]): 980
MIF of Fm (Alpha fetoprotein [10]): 1480
MIF of Fm (Alpha fetoprotein [11]): 1060
MIF of Fm [12]: 49
MIF of Fm [13]: 48
MIF of Fm [14]: 47
MIF of Fm (Alpha fetoprotein [15]): 98
MIF of Fm [16]: 44
MIF of Fm [17]: 47
MIF of Fm (Alpha fetoprotein [18]): 356
Substance: M20077 affinity purified polyclonal anti-AFP antibody, Bodipy FL-CASE labeled

MIF of Fm [19]: 128 and 111
MIF of Fm [20]: 258 and 254
MIF of Fm [21]: 1300
MIF of Fm [22]: 330
MIF of Fm [23]: 3180
MIF of Fm [24]: 175
MIF of Fm [25]: 3340
MIF of Fm [26]: 3160
MIF of Fm [27]: 3190
MIF of Fm [28]: 1200
MIF of Fm (Alpha fetoprotein [29]): 52
MIF of Fm [30]: 761
MIF of Fm (Alpha fetoprotein [31]): 61
MIF of Fm (Alpha fetoprotein [32]): 75
MIF AVG [33]: 31.7
MIF of FL1 [33]: 32 and 34 and 29
Substance: AB633 affinity purified polyclonal anti-hCG antibody, Bodipy FL-CASE labeled
